Laboratory results taken from the supplement of paper PMC7877785.
± gives the uncertainty stated by the source.

Test: self-splicing fitness, log relative to wild type (ln ratio); higher = more splicing; Tetrahymena group I intron in knt gene, E. coli kanamycin selection, DiMSum; sequences stand for … in CUCUCU…GGAGGGAAAAGUUAUCAGGCAUGCACCUGGUAGCUAGUCUUUAAACCAAUAGAUUGCAUCGGUUUAAAAGGCAAGACCGUCAAAUUGCGGGAAAGGGGUCAACAGCCGUUCAGUACCAAGUCUCAGGGGAAACUUUGAGAUGGCCUUGCAAAGGGUAUGGUAAUAAGCUGACGGACAUGGUCCUAACCACGCAGCCAAGUCCUAAGUCAACAGAUCUUCUGUUGAUAUGGAUGCAGUUCACAGACUAAAUGUCGGUCGGGGAAGAUGUAUUCUUCUCAUAAGAUAUAGUCGGACCUCUCCUUAAUGGGAGCUAGCGGAUGAAGUGAUGCAACACUGGAGCCGCUGGGAACUAAUUUGUAUGCGAAAGUAUAUUGAUUAGUUUUGGAGUACUCGUGGUCG
Summary of the method: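 DiMSum derived fitness as the error-weighted combination of fold changes across replicates, kanamycin versus no kanamycin, normalised to wild type. E. coli BL21(DE3) held the library, which randomised all eight P1ex-region intron nucleotides within the knt kanamycin-resistance gene on pET-22b(+). Six replicate transformations grew overnight at 37°C or 30°C on LB agar with or without 25 μg/mL kanamycin, also containing 100 μg/mL carbenicillin, 50 μM IPTG and 0.2% rhamnose, and pooled colonies were amplicon-sequenced on an Illumina HiSeq 2500.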

Row | Sequence | self-splicing fitness (ln) (37 °C) | self-splicing fitness (ln) (30 °C)
1 | CAUAAGCAAUAUUACGAAAA | -3.32 ± 0.34 | –
2 | CAUAAGCAAUAUUACGAAGG | -1.55 ± 0.15 | -1.56 ± 0.11
3 | CAUAAGCAAUAUUACGAAGU | -2.75 ± 0.29 | -3.15 ± 0.17
4 | CAUAAGCAAUAUUACGACCU | -1.62 ± 0.33 | -2.63 ± 0.28
5 | CAUAAGCAAUAUUACGACUC | -0.925 ± 0.14 | -3.48 ± 0.34
6 | CAUAAGCAAUAUUACGAGCG | 0.0464 ± 0.088 | 0.0605 ± 0.064
7 | CAUAAGCAAUAUUACGAGGC | -2.24 ± 0.35 | -3.54 ± 0.35
8 | CAUAAGCAAUAUUACGAGGG | -2.53 ± 0.28 | -2.96 ± 0.17
9 | CAUAAGCAAUAUUACGAUCU | -1.85 ± 0.24 | -2.67 ± 0.23
10 | CAUAAGCAAUAUUACGCACA | -0.312 ± 0.11 | -2.05 ± 0.12
11 | CAUAAGCAAUAUUACGCAGG | -1.22 ± 0.18 | -1.84 ± 0.18
12 | CAUAAGCAAUAUUACGCCAA | -2.69 ± 0.32 | -2.33 ± 0.17
13 | CAUAAGCAAUAUUACGCCAC | -2.59 ± 0.39 | -2.8 ± 0.37
14 | CAUAAGCAAUAUUACGCGUC | -2.15 ± 0.2 | -3.98 ± 0.26
15 | CAUAAGCAAUAUUACGCUCC | -0.216 ± 0.49 | -2.87 ± 0.23
16 | CAUAAGCAAUAUUACGCUCG | -0.252 ± 0.12 | -0.821 ± 0.11
17 | CAUAAGCAAUAUUACGGACG | 0.568 ± 0.12 | 0.133 ± 0.093
18 | CAUAAGCAAUAUUACGGCAA | -1.61 ± 0.18 | -2.52 ± 0.18
19 | CAUAAGCAAUAUUACGGGCA | -1.8 ± 0.19 | -2.77 ± 0.18
20 | CAUAAGCAAUAUUACGGGGC | -1.22 ± 0.16 | -3.25 ± 0.26
21 | CAUAAGCAAUAUUACGGUAA | -2.77 ± 0.29 | -3.92 ± 0.46
22 | CAUAAGCAAUAUUACGGUCU | -1.51 ± 0.2 | -2.8 ± 0.3
23 | CAUAAGCAAUAUUACGGUUA | -2.05 ± 0.12 | -2.7 ± 0.16
24 | CAUAAGCAAUAUUACGGUUU | -2.69 ± 0.17 | -4.02 ± 0.19
25 | CAUAAGCAAUAUUACGUAAU | -2.16 ± 0.14 | -4.04 ± 0.28

Row | Sequence | self-splicing fitness (ln) (37 °C) | self-splicing fitness (ln) (30 °C)
26 | CAUAAGCAAUAUUACGUAGA | -1.97 ± 0.12 | -3.68 ± 0.13
27 | CAUAAGCAAUAUUACGUCUC | -2.52 ± 0.29 | -3.68 ± 0.3
28 | CAUAAGCAAUAUUACGUGAG | -0.711 ± 0.099 | -3.12 ± 0.13
29 | CAUAAGCAAUAUUACGUUCA | -1.95 ± 0.13 | -3.29 ± 0.13
30 | CAUAAGCAAUAUUACGUUCU | -3.1 ± 0.3 | -3.28 ± 0.23
31 | CAUCAGCAAUAUUACGAACA | -1.85 ± 0.21 | -2.82 ± 0.25
32 | CAUCAGCAAUAUUACGAACC | -0.525 ± 0.46 | -2.59 ± 0.24
33 | CAUCAGCAAUAUUACGAGAG | -0.955 ± 0.075 | -1.9 ± 0.072
34 | CAUCAGCAAUAUUACGAGAU | -3.71 ± 0.21 | -3.84 ± 0.18
35 | CAUCAGCAAUAUUACGAGGC | -2.64 ± 0.21 | -3.77 ± 0.2
36 | CAUCAGCAAUAUUACGAGGU | -2.86 ± 0.22 | -3.46 ± 0.21
37 | CAUCAGCAAUAUUACGAGUC | -1.6 ± 0.21 | -4.85 ± 0.34
38 | CAUCAGCAAUAUUACGAUAU | -0.599 ± 0.085 | -1.76 ± 0.073
39 | CAUCAGCAAUAUUACGAUGA | -0.687 ± 0.15 | -2.62 ± 0.24
40 | CAUCAGCAAUAUUACGAUUA | -0.682 ± 0.085 | -0.634 ± 0.091
41 | CAUCAGCAAUAUUACGCAAG | -0.304 ± 0.065 | -0.655 ± 0.065
42 | CAUCAGCAAUAUUACGCCCA | -2.1 ± 0.21 | -2.9 ± 0.23
43 | CAUCAGCAAUAUUACGCGUC | -0.783 ± 0.086 | -2.58 ± 0.089
44 | CAUCAGCAAUAUUACGGGCA | -1.83 ± 0.14 | -2.51 ± 0.12
45 | CAUCAGCAAUAUUACGGGCC | -2.29 ± 0.47 | -3.02 ± 0.45
46 | CAUCAGCAAUAUUACGGGCU | -2.48 ± 0.2 | -4.04 ± 0.31
47 | CAUCAGCAAUAUUACGUACG | -0.0455 ± 0.097 | 0.0534 ± 0.077
48 | CAUCAGCAAUAUUACGUAGU | -0.682 ± 0.06 | -1.66 ± 0.04
49 | CAUCAGCAAUAUUACGUAUU | -1.65 ± 0.11 | -2.15 ± 0.097
50 | CAUCAGCAAUAUUACGUCAG | 0.43 ± 0.092 | -0.52 ± 0.062

Row | Sequence | self-splicing fitness (ln) (37 °C) | self-splicing fitness (ln) (30 °C)
51 | CAUCAGCAAUAUUACGUCCC | -1.39 ± 0.27 | -2.53 ± 0.31
52 | CAUCAGCAAUAUUACGUCCG | 0.497 ± 0.088 | -0.619 ± 0.059
53 | CAUCAGCAAUAUUACGUGAU | -0.987 ± 0.086 | -2.78 ± 0.078
54 | CAUCAGCAAUAUUACGUGGG | -1.71 ± 0.1 | -1.9 ± 0.075
55 | CAUCAGCAAUAUUACGUUAA | -1.85 ± 0.17 | -2.79 ± 0.16
56 | CAUCAGCAAUAUUACGUUUA | -1.36 ± 0.094 | -1.36 ± 0.086
57 | CAUGAGCAAUAUUACGAAGA | -2.3 ± 0.26 | –
58 | CAUGAGCAAUAUUACGAGAA | – | -0.549 ± 0.29
59 | CAUGAGCAAUAUUACGAGAG | -3.27 ± 0.23 | -3.22 ± 0.16
60 | CAUGAGCAAUAUUACGAUAA | -1.97 ± 0.3 | -3.72 ± 0.35
61 | CAUGAGCAAUAUUACGAUUU | -2.15 ± 0.2 | -2.51 ± 0.15
62 | CAUGAGCAAUAUUACGCCGG | -2.14 ± 0.26 | -3.79 ± 0.22
63 | CAUGAGCAAUAUUACGCGCU | -2.21 ± 0.4 | -3.58 ± 0.42
64 | CAUGAGCAAUAUUACGCUCA | -2.18 ± 0.18 | -3.35 ± 0.17
65 | CAUGAGCAAUAUUACGCUCU | -2.82 ± 0.31 | -3.71 ± 0.49
66 | CAUGAGCAAUAUUACGGAGU | -3.1 ± 0.31 | -4.1 ± 0.4
67 | CAUGAGCAAUAUUACGGCUA | -1.87 ± 0.2 | -2.75 ± 0.45
68 | CAUGAGCAAUAUUACGGGUC | -2.75 ± 0.27 | -2.75 ± 0.25
69 | CAUGAGCAAUAUUACGGUAU | -3.54 ± 0.33 | -4 ± 0.39
70 | CAUGAGCAAUAUUACGGUGA | -2.8 ± 0.44 | -1.91 ± 0.35
71 | CAUGAGCAAUAUUACGGUUU | -3.01 ± 0.24 | -3.52 ± 0.2
72 | CAUGAGCAAUAUUACGUAAA | -3.43 ± 0.32 | -3.16 ± 0.15
73 | CAUGAGCAAUAUUACGUAGU | -3.3 ± 0.19 | -5.58 ± 0.41
74 | CAUGAGCAAUAUUACGUAUG | -2.65 ± 0.22 | -2.65 ± 0.21
75 | CAUGAGCAAUAUUACGUCAC | – | -3.36 ± 0.36

Row | Sequence | self-splicing fitness (ln) (37 °C) | self-splicing fitness (ln) (30 °C)
76 | CAUGAGCAAUAUUACGUCCG | -0.331 ± 0.1 | -0.682 ± 0.079
77 | CAUGAGCAAUAUUACGUCGU | -3.34 ± 0.19 | -3.75 ± 0.18
78 | CAUGAGCAAUAUUACGUGGA | -3 ± 0.38 | -3.96 ± 0.47
79 | CAUGAGCAAUAUUACGUGGU | -2.49 ± 0.16 | -3.53 ± 0.18
80 | CAUGAGCAAUAUUACGUUGC | -3.34 ± 0.2 | -2.57 ± 0.091
81 | CAUUAGCAAUAUUACGAAAU | -2.37 ± 0.28 | -3.12 ± 0.29
82 | CAUUAGCAAUAUUACGAAGA | -0.417 ± 0.23 | -3.8 ± 0.43
83 | CAUUAGCAAUAUUACGAUAG | -0.688 ± 0.11 | -0.405 ± 0.094
84 | CAUUAGCAAUAUUACGCGAC | – | -3.58 ± 0.48
85 | CAUUAGCAAUAUUACGCUGC | -2.43 ± 0.24 | -3.92 ± 0.28
86 | CAUUAGCAAUAUUACGGAUC | -1.6 ± 0.16 | -1.46 ± 0.12
87 | CAUUAGCAAUAUUACGGCCU | -2.21 ± 0.21 | -3.52 ± 0.18
88 | CAUUAGCAAUAUUACGGGAA | -2.59 ± 0.41 | –
89 | CAUUAGCAAUAUUACGGUAA | -2.26 ± 0.14 | -2.31 ± 0.14
90 | CAUUAGCAAUAUUACGGUUC | -2.55 ± 0.23 | -3.48 ± 0.21
91 | CAUUAGCAAUAUUACGUAAG | 0.358 ± 0.074 | -0.138 ± 0.057
92 | CAUUAGCAAUAUUACGUCAC | -1.63 ± 0.44 | –
93 | CAUUAGCAAUAUUACGUCCU | -1.38 ± 0.15 | -3.14 ± 0.18
94 | CAUUAGCAAUAUUACGUGUC | -2.18 ± 0.24 | –
95 | CAUUAGCAAUAUUACGUUAA | -1.91 ± 0.2 | -2.87 ± 0.22
96 | CAUUAGCAAUAUUACGUUUU | -3.21 ± 0.24 | -4 ± 0.24
97 | CCAAAGCAAUAUUACGAAAA | -2.85 ± 0.32 | -1.93 ± 0.17
